From US20190177704A1, “MODIFIED LUCIFERASE” (RIKEN, priority 2016, published 2019)
Where a chain is given by its changes, count along the chain named. Names may count otherwise.

B1: Variant b: luc2 variant with the mutations of column b in Table 1 (SEQ ID NO: 5) (protein)
chain: MEDAKNIKKGPAPFYPLEDGTAGEQLHKAMKRYALVPGAIAFTDAHIQVDVTYAEYFEMSVRLAEAMRRYGLNTNHRIVVCSENSLQFFMPVLGALFIGVAVAPANDIYNERELLNSMGISQPTVVFVSKKGLRKVLDVQKKLPIIRKIIIMDSKTDYQGFQSMYTFVASHLPPSFNEYDFVPECFDRDKTIALIMNSSGSTGLPKGVALPHRTACVRFSHARDPIFGYQNIPDTAILSVVPFHHGFGMFTTLGYLICGFRVVFMYRFEEELFLRSLQDYKIQSALLVPTLFSCLAKSTLIDKYDLSSLREIASGGAPLSKEVGEAVAKRFRLPGIRQGYGLTETTNAVMITPEGDRKPGSVGKVVPFFEAKVVDLVTGKTLGVNQRGELCVRGPMIMSGYVNNPEATNALIDKDGWLHSGDIAYWDEDEHFFIVDRLKSLIKYKGYQVAPAELEGILLQHPYIFDAGVAGLPDDDAGELPAAVVVLEHGKTMTEKEIVDYVASQVTTAKKLRGGVVFVDEVPRGPTGKLDARKIREILTKAKKDGKIAV
modifications: Modified Luciferase
B2: Variant c: luc2 variant with the mutations of column c in Table 1 (SEQ ID NO: 6) (protein)
chain: B1 chain with L86S, D138N, A169T, C185S, F264L, P526S
modifications: Modified Luciferase
B3: Variant d: luc2 variant with the mutations of column d in Table 1 (SEQ ID NO: 7) (protein)
chain: B1 chain with L86S, D138N, A169T, F264L, T290A, L291P
modifications: Modified Luciferase
B4: Luc2: luciferase derived from Photinus pyralis consisting of an amino acid sequence represented by SEQ ID NO: 1 (protein, listed as Photinus pyralis)
chain: MEDAKNIKKGPAPFYPLEDGTAGEQLHKAMKRYALVPGTIAFTDAHIEVDITYAEYFEMSVRLAEAMKRYGLNTNHRIVVCSENSLQFFMPVLGALFIGVAVAPANDIYNERELLNSMGISQPTVVFVSKKGLQKILNVQKKLPIIQKIIIMDSKTDYQGFQSMYTFVTSHLPPGFNEYDFVPESFDRDKTIALIMNSSGSTGLPKGVALPHRTACVRFSHARDPIFGNQIIPDTAILSVVPFHHGFGMFTTLGYLICGFRVVLMYRFEEELFLRSLQDYKIQSALLVPTLFSFFAKSTLIDKYDLSNLHEIASGGAPLSKEVGEAVAKRFHLPGIRQGYGLTETTSAILITPEGDDKPGAVGKVVPFFEAKVVDLDTGKTLGVNQRGELCVRGPMIMSGYVNNPEATNALIDKDGWLHSGDIAYWDEDEHFFIVDRLKSLIKYKGYQVAPAELESILLQHPNIFDAGVAGLPDDDAGELPAAVVVLEHGKTMTEKEIVDYVASQVTTAKKLRGGVVFVDEVPKGLTGKLDARKIREILIKAKKGGKIAV
B5: N229Y_H310Q_S347N: luc2 variant with N229Y, H310Q and S347N mutations (SEQ ID NO: 4) (protein)
chain: B4 chain with N229Y, H310Q, S347N
modifications: Modified Luciferase
B6: N229H_S347N: luc2 variant with N229H and S347N mutations (SEQ ID NO: 3) (protein)
chain: B4 chain with N229H, S347N
modifications: Modified Luciferase
B7: N229Y_S347N: luc2 variant with N229Y and S347N mutations (SEQ ID NO: 2) (protein)
chain: B4 chain with N229Y, S347N
modifications: Modified Luciferase

Test: Emission intensity of luciferase-expressing HeLa S3 cells with AkaLumine
Assay type: cell-based
Conditions: emission intensity of D-luciferin defined as 1; HeLa S3 cells
Protocol: (§1) A plasmid pcDNA3 was treated with use of BamHI and EcoRI, and genes encoding the respective luciferases above were each inserted into the plasmid pcDNA3 to produce plasmids for transfection.
(§2) HeLa S3 cells were used as mammalian cells to be transfected. For each of the luciferases above, HeLa S3 cells which had been cultured in D-MEM (low glucose, containing 10% FBS and 1% penicillin streptomycin, Wako Pure Chemical Industries, Ltd.) and were in an 80% confluent state were mixed with a transfection reagent (Polyethylenimine, Linear (MW 25,000, Polysciences, Inc)) and the plasmid for transfection (0.3 μg) to conduct transfection.
(§3) 24 hours after the transfection, the cells were dissociated through trypsinization, and were suspended in DMEM/F12 (10% FBS, gibco). Subsequently, centrifugation was conducted to remove the supernatant, and then the cells were resuspended in 1 mL DMEM/F12 so as to be used as luciferase-expressing cells.
(§4) In 1.5 mL Eppendorf tube, 20 μL of the produced luciferase-expressing cells and 80 μL of a substrate solution (prepared with pH 7.4 PBS) were mixed, and light emission from the obtained mixture was measured for one minute (with use of a luminometer AB-2280 manufactured by ATTO Corporation). An integrated value of the values thus measured within one minute was defined as the emission intensity.
(§5) As the substrate solution, AkaLumine or D-luciferin (80 μM each) was added. Results of the measurement of emission intensity are shown below in Table 2 as relative values with respect to 1.0 which is an emission intensity obtained in a case where AkaLumine was added to a sample of luc2.
(§6) Subsequently, with use of D-luciferin, AkaLumine, AkaLumine-OH, 6-AkaLumine, 0-AkaLumine, monoene NMe2, monoene NH2, monoene OH, and biphenyl as substrates, specificity to each of these substrates was evaluated. The substrates are respectively represented by the following chemical formulae. Each substrate solution contains a single kind of substrate.
(§7) Tables 3 through 8 show results of relative emission intensities in a case where the emission intensity of D-luciferin is defined as 1.

Molecule	relative emission intensity, AKA
B1	2.4 × 10^3
B2	9.0 × 10^3
B3	3.4 × 10^3
B4	2.6 × 10^−1
B5	4.1 × 10^3
B6	1.7 × 10^3
B7	6.4 × 10^3

Same assay, conditions: ratio of relative emission intensities, Table 2

Molecule	AkaLumine/D-luciferin
B3	3.4 × 10^3
B4	1.8

Same assay, conditions: relative to 1.0 = emission intensity of luc2 with AkaLumine; 80 μM substrate; integrated over one minute; HeLa S3 cells

Molecule	AkaLumine emission intensity, relative value
B1	2.4
B2	6.8
B3	6.1
B4	1.0

Test: Emission intensity of luciferase-expressing HeLa S3 cells with D-luciferin
Assay type: cell-based
Conditions: emission intensity of D-luciferin defined as 1
Protocol: as §1, §2, §3, §4, §5, §6, §7

Molecule	relative emission intensity, Dluc
B1	1.0
B2	1.0
B3	1.0
B4	1.0
B5	1.0
B6	1.0
B7	1.0

Same assay, conditions: relative to 1.0 = emission intensity of luc2 with AkaLumine, 80 μM substrate, integrated over one minute

Molecule	D-luciferin emission intensity, relative value
B1	not detected
B2	not detected
B3	1.8 × 10^−3
B4	5.5 × 10^−1

Test: Emission intensity of luciferase-expressing HeLa S3 cells with AkaLumine-OH
Assay type: cell-based
Conditions: emission intensity of D-luciferin defined as 1
Protocol: as §1, §2, §3, §4, §6, §7

Molecule	relative emission intensity, AKA-OH
B1	0.9
B2	1.8
B3	9.8 × 10^−1
B4	not detected
B5	1.4
B6	0.9
B7	2.1

Test: Emission intensity of luciferase-expressing HeLa S3 cells with 6-AkaLumine
Assay type: cell-based
Conditions: emission intensity of D-luciferin defined as 1
Protocol: as §1, §2, §3, §4, §6, §7

Molecule	relative emission intensity, 6-AKA
B1	8.1 × 10^2
B2	1.8 × 10^3
B3	1.5 × 10^3
B4	1.6 × 10^−1
B5	1.1 × 10^3
B6	8.5 × 10^2
B7	9.6 × 10^2

Test: Emission intensity of luciferase-expressing HeLa S3 cells with 0-AkaLumine
Assay type: cell-based
Conditions: emission intensity of D-luciferin defined as 1
Protocol: as §1, §2, §3, §4, §6, §7

Molecule	relative emission intensity, O-AKA
B4	8.4 × 10^−3
B5	2.1 × 10^−3
B6	6.3

Test: Emission intensity of luciferase-expressing HeLa S3 cells with monoene NMe2
Assay type: cell-based
Conditions: emission intensity of D-luciferin defined as 1
Protocol: as §1, §2, §3, §4, §6, §7

Molecule	relative emission intensity, monoNMe2
B3	6.6
B4	1.1 × 10^−1
B7	2.4 × 10^2

Test: Emission intensity of luciferase-expressing HeLa S3 cells with monoene NH2
Assay type: cell-based
Conditions: emission intensity of D-luciferin defined as 1
Protocol: as §1, §2, §3, §4, §6, §7

Molecule	relative emission intensity, monoNH2
B1	1.2 × 10^−1
B2	1.8 × 10^−1
B3	1.3 × 10^−1
B4	3.0 × 10^−3
B5	7.3 × 10^−1
B6	4.3 × 10^−1
B7	1.7

Test: Emission intensity of luciferase-expressing HeLa S3 cells with monoene OH
Assay type: cell-based
Conditions: emission intensity of D-luciferin defined as 1
Protocol: as §1, §2, §3, §4, §6, §7

Molecule	relative emission intensity, monoOH
B1	1.5 × 10^−2
B2	1.1 × 10^−1
B3	7.1 × 10^−2
B4	1.8 × 10^−3
B5	1.3 × 10^−1
B6	not detected
B7	1.4 × 10^−2

Test: Emission intensity of luciferase-expressing HeLa S3 cells with biphenyl
Assay type: cell-based
Conditions: emission intensity of D-luciferin defined as 1
Protocol: as §1, §2, §3, §4, §6, §7

Molecule	relative emission intensity, biph
B1	3.1
B2	4.1
B3	7.5
B4	1.4 × 10^−2
B6	4.9
B7	6.9
